{"source": "patent US20210002370A1", "target": "PD-L1 extracellular domain expressed in HEK293 cells (human) (UniProt Q9NZQ7)", "sequence (Q9NZQ7 19-238)": "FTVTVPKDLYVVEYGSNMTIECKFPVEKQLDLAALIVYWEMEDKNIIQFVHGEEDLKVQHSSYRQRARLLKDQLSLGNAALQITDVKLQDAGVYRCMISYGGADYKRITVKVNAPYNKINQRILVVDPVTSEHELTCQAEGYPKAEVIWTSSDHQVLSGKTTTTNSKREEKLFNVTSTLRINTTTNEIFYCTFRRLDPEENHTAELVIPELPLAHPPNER", "assay": "gradient dilution ELISA on coated PD-L1, serum dilution 200", "data": [{"substance": "Alpaca serum before immunization", "values": [{"measurement": "ELISA OD", "value": 0.631, "unit": "OD450 nm"}]}]}
